Test results reported in US20210395392A1 (Bristol-Myers Squibb, published 2021).

T1: Recombinant soluble extracellular domain of human MerTK (human, UniProt Q12866 21-505)
T1 construct: SPR analyte; also called hMerTK
T1 sequence: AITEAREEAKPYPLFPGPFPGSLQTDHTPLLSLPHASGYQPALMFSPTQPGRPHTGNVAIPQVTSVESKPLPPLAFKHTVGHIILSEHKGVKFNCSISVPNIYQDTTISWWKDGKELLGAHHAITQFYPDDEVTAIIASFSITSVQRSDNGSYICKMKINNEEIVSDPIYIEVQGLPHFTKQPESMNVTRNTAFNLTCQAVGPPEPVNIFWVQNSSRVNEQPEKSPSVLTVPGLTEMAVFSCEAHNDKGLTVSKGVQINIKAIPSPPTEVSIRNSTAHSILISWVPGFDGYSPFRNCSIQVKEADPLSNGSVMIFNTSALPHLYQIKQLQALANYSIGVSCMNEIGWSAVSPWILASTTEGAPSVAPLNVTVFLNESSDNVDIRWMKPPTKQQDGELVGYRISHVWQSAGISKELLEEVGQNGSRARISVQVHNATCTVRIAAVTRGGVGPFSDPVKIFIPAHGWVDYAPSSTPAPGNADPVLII

T2: Recombinant soluble extracellular domain of cynomolgus monkey MerTK (cynomolgus monkey, UniProt Q12866 21-505 (human entry))
T2 construct: SPR analyte; also called cMerTK; Cynomolgus MerTK
T2 chain: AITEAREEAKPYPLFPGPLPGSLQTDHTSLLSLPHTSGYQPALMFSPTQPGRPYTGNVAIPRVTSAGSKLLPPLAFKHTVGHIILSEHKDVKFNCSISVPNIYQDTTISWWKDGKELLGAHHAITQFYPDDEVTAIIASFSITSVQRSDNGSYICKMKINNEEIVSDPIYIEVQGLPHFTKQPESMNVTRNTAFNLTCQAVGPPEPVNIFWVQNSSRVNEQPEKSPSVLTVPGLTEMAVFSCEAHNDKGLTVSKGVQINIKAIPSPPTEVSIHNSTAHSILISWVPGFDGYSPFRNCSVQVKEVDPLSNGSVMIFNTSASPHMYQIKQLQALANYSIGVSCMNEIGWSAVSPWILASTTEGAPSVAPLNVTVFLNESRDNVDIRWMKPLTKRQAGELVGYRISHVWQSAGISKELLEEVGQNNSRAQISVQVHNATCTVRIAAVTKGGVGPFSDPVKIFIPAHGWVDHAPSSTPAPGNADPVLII

T3: Mouse MerTK on mMerTK-expressing cells (mouse, UniProt Q60805 19-994)
T3 construct: Receptor construct of the signaling assay is not described
T3 sequence: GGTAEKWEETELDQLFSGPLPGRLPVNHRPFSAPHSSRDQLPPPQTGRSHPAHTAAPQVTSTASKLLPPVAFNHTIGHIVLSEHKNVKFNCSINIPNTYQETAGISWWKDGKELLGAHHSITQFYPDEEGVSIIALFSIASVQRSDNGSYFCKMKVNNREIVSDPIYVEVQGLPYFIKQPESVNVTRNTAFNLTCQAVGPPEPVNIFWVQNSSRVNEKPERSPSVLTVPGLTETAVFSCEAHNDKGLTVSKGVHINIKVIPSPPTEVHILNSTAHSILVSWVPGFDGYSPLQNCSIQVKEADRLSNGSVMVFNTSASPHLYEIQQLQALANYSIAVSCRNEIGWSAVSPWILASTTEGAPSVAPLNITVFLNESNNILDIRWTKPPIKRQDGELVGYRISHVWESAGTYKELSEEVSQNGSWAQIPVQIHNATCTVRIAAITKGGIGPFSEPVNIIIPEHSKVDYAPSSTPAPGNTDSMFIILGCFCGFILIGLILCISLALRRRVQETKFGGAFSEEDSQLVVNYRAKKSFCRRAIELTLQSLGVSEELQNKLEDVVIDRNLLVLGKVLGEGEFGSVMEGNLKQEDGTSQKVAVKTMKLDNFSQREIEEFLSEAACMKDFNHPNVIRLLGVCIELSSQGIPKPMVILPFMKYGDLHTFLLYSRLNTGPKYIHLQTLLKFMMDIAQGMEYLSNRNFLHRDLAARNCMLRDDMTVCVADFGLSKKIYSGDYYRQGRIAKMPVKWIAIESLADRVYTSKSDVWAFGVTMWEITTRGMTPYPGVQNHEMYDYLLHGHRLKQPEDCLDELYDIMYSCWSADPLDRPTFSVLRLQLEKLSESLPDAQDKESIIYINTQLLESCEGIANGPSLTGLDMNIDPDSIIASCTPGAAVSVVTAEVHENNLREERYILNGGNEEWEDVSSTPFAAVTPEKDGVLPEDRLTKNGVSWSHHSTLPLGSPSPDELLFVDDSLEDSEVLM


Columns and labels:
[1] = biological target: T1, Recombinant soluble extracellular …; assay: SPR, mAb captured, soluble MerTK ECD as analyte, 37 C
Description: (§1) MerTK Abs were captured on the chip. Recombinant soluble forms of the extracellular domains of human, cynomolgus monkey, and mouse MerTK polypeptide were injected as analytes at multiple concentrations each. The resulting sensorgrams were double-referenced and fitted to a 1:1 Langmuir binding model with mass transport.

[2] = biological target: T2, Recombinant soluble extracellular …; assay: as above
Description: as §1

[3] = biological target: T3, Mouse MerTK on mMerTK-expressing cells; assay: binding to mMerTK-expressing cells; SPR not run

Binder | Kd [1] [nM] | koff [1] [s⁻¹] | kon [1] [M⁻¹ s⁻¹] | t1/2 [1] [min] | Kd [2] [nM] | koff [2] [s⁻¹] | kon [2] [M⁻¹ s⁻¹] | t1/2 [2] [min] | binding result [3]
HuMAb 1B4 (antibody, human IgG1, kappa, V domains shown, Human anti-hMerTK mAb, Bin 1) VH: QLQLQESGPGLVKPSETLSLTCAVSGYSISSGNYWGWIRQSPGKGLEWIGSVDHSGSTYYSPSLKSRVTISVDTSKNQFSLKLNSVTAADTADYYCARNTMIRGVMDWFDPWGQGTLVTVSS VL: AIQLTQSPSSLSASVGDRVTITCRASQGISSALAWYQQKPGKAPKVLIYDASSLESGVPSRFSGSGSGTDFTLTISSLQPEDFATYYCQQFRSYPTFGQGTKVEIKR | 34.4 | 0.00844 | 250000 | 1.4 | 54.9 | 0.00796 | 145000 | 1.5 | no binding
HuMAb 22I16 (antibody, human IgG1, kappa, V domains shown, Human anti-hMerTK mAb, Bin 1; also called 22116) VH: EVQLVESGGGLVQPGGSLRLSCAASGFTFSSYSMNWVRQAPGKGLEWVSYIISGSDTIFYADSVKGRFTISRDNAKNSLYLQMNSLRDEDTAVYYCARDETVVRGVINYFDYWGQGTLVTVSS VL: AIQLTQSPSSLSASVGDRVTITCRSSQGISSALAWYQQKPGKAPKLLIYDASSLESGVPSRFSGSGSGTDFTLTISSLQPEDFATYYCQQFISYPTFGQGTRLEIKR | 10.6 | 0.000775 | 73500 | 14.9 | 24.7 | 0.00126 | 50900 | 10.2 | no binding
HuMAb 25J60 (antibody, human IgG1, kappa, V domains shown, Human anti-hMerTK mAb, Bin 2, derived from HuMAb 25B10 by optimization) VH: QVQLVQSGAEVKKPGASVKVSCKTSGNTQIRYYMYWVRQAPGQGLEWMGILNPNQDQTTYAQKFQGRVTMTRDTSTSTVYMELSSLRSEDTAVYYCATTYRYYMDVWGQGTTVTVSS VL: not shown | 2.3 | 0.000975 | 421000 | 11.9 | 2.5 | 0.00099 | 400000 | 11.7 | no binding
HuMAb 25J80 (antibody, human IgG1, kappa, V domains shown, Human anti-hMerTK mAb, Bin 2, derived from HuMAb 25B10 by optimization) VH: QVQLVQSGAEVKKPGASVKVSCKTSGRTFIRYYMHWVRQAPGQGLEWMGIIWPNGDQTTYAQKFQGRVTMTRDTSTSTVYMELSSLRSEDTAVYYCATTYKYAMDVWGQGTTVTVSS VL: EIVLTQSPGTLSLSPGERATLSCRASQSVRSNYLAWYQQKPGQAPRLLIYGASSRATGIPDRFSGSGSGTDFTLTISRLEPEDFAVYYCQQYESPPRTFGQGTKVEIKR | 4.1 | 0.00123 | 297000 | 9.6 | 4.5 | 0.00124 | 274000 | 4.5 | no binding
HuMAb 8N42 (antibody, V domains shown, Human anti-hMerTK mAb, Bin 1) VH: QVQLQQWGAGLLKPSETLSLTCAVYGGSFSIYYWSWIRQPPGKGLELIGEINDEGNTNYNPSLKSRVTISVDTSKNQFSLKLSSVTAADTAVYYCARGGTGDIHAFDIWGQGTMVTVSS VL: DIQMTQSPSSLSASVGDRVTITCRASQGISKWLAWYQQKPEKAPKSLIYAASSLQSGVPSRFSGSGSGTDFTLTISSLQPEDFATYYCQQYNSYPWTFGQGTKVEIKR | 5.7 | 0.00168 | 299000 | 6.9 | 14 | 0.0014 | 100000 | 8.3 | no binding
HuMAb 4K10 (antibody, human IgG1, kappa, V domains shown, Human anti-hMerTK mAb, Bin 3) VH: QVQLQQWGAGLLKPSETLSLTCAVYGGSFSGYYWSWLRQPPGKGLEWIGEISHSGSTNYNPSLKSRVTISVDTSKNQFSLKLSSVTAADTAVYYCARALSRYWYFDLWGRGTLVTVSS VL: EIVLTQSPATLSLSPGERATLSCRASQSASNYLAWYQQKPGQAPRLLIYDASNRATGIPARFSGSGSGTDFTLTISSLEPEDFAVYYCYQRSQWPISFGQGTRLEIKR | 27.8 | 0.00336 | 121000 | 3.4 | 31.3 | 0.00379 | 121000 | 3 | no binding
